# Experimental data: patent US20110076262A1 (Genentech, published 2011)
# Substitutions are numbered along the chain they refer to. In names and notes the source's numbering stands.
# B1: chimeric anti-FGF19 antibody 1A6 (antibody, V domains shown)
# VH: QVQLKQSGPGLVQPSQSLSITCTVSGFSLTTYGVHWVRQSPGKGLEWLGVIWPGGGTDYNAAFISRLSITKDNSKSQVFFKMNSLLANDTAIYFCVRKEYANLYAMDYWGQGTLLTVSA
# VL: DIKMTQSPSSMYASLGERVTIPCKASQDINSFLSWFQQKPGKSPKTLIYRANRLVDGVPSRFSGSGSGQDYSLTISSLEYEDMGIYYCLQYDEFPLTFGAGTKVEIKR
# notes: also called chimeric 1A6; ch1A6
# B2: 1A6-graft (direct HVR-graft of 1A6), expressed as IgG (antibody, V domains shown)
# VH: EVQLVESGGGLVQPGGSLRLSCAASGFSLTTYGVHWVRQAPGKGLEWVGVIWPGGGTDYNAAFISRFTISRDNSKNTLYLQMNSLRAEDTAVYYCVRKEYANLYAMDYWGQGTLVTVSS
# VL: DIQMTQSPSSLSASVGDRVTITCKASQDINSFLSWYQQKPGKAPKLLIYRANRLVDGVPSRFSGSGSGTDFTLTISSLQPEDFATYYCLQYDEFPLTFGQGTKVEIKR
# notes: Tested as IgG produced in 293 cells; also called 1A6 grafted antibody; 1A6 HVR graft
# B3: hu1A6.H35Q (HVR-H1) (antibody, name in Kabat numbering, V domains shown)
# VH: B2 VH with H35Q
# VL: B2 VL
# B4: hu1A6.Q90S (HVR-L3) (antibody, V domains shown)
# VH: B2 VH
# VL: B2 VL with Q90S
# B5: hu1A6.S34A (HVR-L1) (antibody, V domains shown)
# VH: B2 VH
# VL: B2 VL with S34A
# B6: hu1A6.V50L (HVR-H2) (antibody, name in Kabat numbering, V domains shown)
# VH: B2 VH with V50L
# VL: B2 VL
# B7: hu1A6.V34A (HVR-H1) (antibody, name in Kabat numbering, V domains shown)
# VH: B2 VH with V34A
# VL: B2 VL
# B8: hu1A6.A100bR (HVR-H3) (antibody, name in Kabat numbering, V domains shown)
# VH: B2 VH with A105R
# VL: B2 VL
# B9: hu1A6.A100bP/M100kS (HVR-H3) (antibody, name in Kabat numbering, V domains shown)
# VH: B2 VH with A105P, M106S
# VL: B2 VL
# notes: also called A100bP/M100cS
# B10: hu1A6.S34T (HVR-L1) (antibody, V domains shown)
# VH: B2 VH
# VL: B2 VL with S34T
# B11: hu1A6.S34A/D56S (HVR-L1/L2) (antibody, V domains shown)
# VH: B2 VH
# VL: B2 VL with S34A, D56S
# notes: Humanized 1A6 variant as IgG
# B12: hu1A6.S34G/D56S (HVR-L1/L2) (antibody, V domains shown)
# VH: B2 VH
# VL: B2 VL with S34G, D56S
# notes: Humanized 1A6 variant as IgG
# Biological target: T1, Human FGF19 (human, UniProt O95750 25-216)
# T1 construct: Recombinant soluble protein; also called huFGF19; Fibroblast growth factor 19
# Assay: SPR (BIAcore 2000), IgG on chip, soluble human FGF19
# T1 sequence (O95750 25-216 limits assumed): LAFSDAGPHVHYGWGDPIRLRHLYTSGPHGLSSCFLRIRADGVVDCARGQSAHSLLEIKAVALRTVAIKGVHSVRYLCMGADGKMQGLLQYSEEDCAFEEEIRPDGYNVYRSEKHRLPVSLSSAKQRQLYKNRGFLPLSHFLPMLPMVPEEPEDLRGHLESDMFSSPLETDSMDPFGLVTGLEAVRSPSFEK
Kd [nM],koff [s⁻¹],kon [M⁻¹ s⁻¹],Binder
0.036,5.3e-05,1.47e+06,B1
2.09,0.000124,59300,B2

# Biological target: T1, Human FGF19
# Assay: as above
# Remark: another data set of the same source
"KD (fold weaker), against chimeric 1A6 [fold]","Ka (fold slower), against chimeric 1A6 [fold]","Kd (fold faster), against chimeric 1A6 [fold]",Binder
1,1,1,B1
58.1,24.8,2.3,B2
6.6,5,1.3,B3
16,10.4,1.5,B4
9.1,7.7,1.2,B5
5.7,6.3,0.9,B6
10.5,12.5,0.9,B7
2.3,2.6,0.9,B8
0.9,1.7,0.5,B9
14,12,1.2,B10

# Biological target: T1, Human FGF19
# Assay: as above
# Remark: another data set of the same source
Kd [nM],koff [s⁻¹],kon [M⁻¹ s⁻¹],Binder
0.032,5.4e-05,1.7e+06,B1
0.118,4.6e-05,390000,B11
0.114,1.6e-05,140000,B12

# Biological target: T2, Cynomolgus FGF19 (cynomolgus monkey)
# T2 construct: also called Cyno FGF19; cynoFGF19
# Assay: SPR (BIAcore 2000), IgG on chip, soluble cynomolgus FGF19
Kd [nM],koff [s⁻¹],kon [M⁻¹ s⁻¹],Binder
0.087,6.6e-05,760000,B1
0.481,7.7e-05,160000,B11
0.906,4.8e-05,53000,B12

# Biological target: T1, Human FGF19
# Assay: SPR (Biacore), 1A6-graft as IgG, soluble human FGF19; reference chimeric 1A6
row,fold reduction of binding affinity relative to chimeric 1A6 [fold],Binder
1,> 50,B2

# Biological target: T1, Human FGF19
# Assay: solid phase receptor binding assay: antibody blocks FGF19 binding to plate-captured FGFR4-Fc
# Procedure: (§1) Maxisorb 96 well plates were coated overnight at 4° C. with 50 μl of 2 μg/ml anti-human immunoglobulin Fcγ fragment specific (Jackson Immunoresearch) and used to capture 1 μg/ml FGFR-Fc chimeric proteins (R & D Systems). The non-specific binding sites were saturated with PBS/3% BSA for 1 hour and FGF19 (0.25 μg/ml) was incubated for 2 h in PBS/0.3% BSA in the presence of oligosaccharides (0.5 μg/ml; Neoparin Inc.) and the indicated anti-FGF19 antibody (0-10 μg/ml). FGF19 binding was detected using a biotinylated FGF19 specific polyclonal antibody (0.5 μg/ml; BAF969; R & D Systems) followed by streptavidin-HRP and TMB colorimetric substrate.
# (§2) Humanized anti-FGF19 antibody 1A6.v1 was characterized as follows: [0531] (1) In an assay to test ability of 1A6.v1 to block binding of FGF19 to its receptor, FGFR4, 1A6.v1 was able to block FGF19 binding to its receptor at least as well as one comparator antibody—namely a chimeric antibody (which comprised the variable regions from the murine parent 1A6 antibody (variable domains depicted in FIG. 8) fused to a human Fc region). […] [0532] (2) 1A6.v1 was also tested for cross-species binding among human and primate (Cynomolgus macaque monkey). […] [0533] (3) 1A6.v1 was tested for in vitro efficacy using a colon tumor cell line (HCT116 cells). […] [0534] […]
row,IC50 [nM],Binder
1,4.5,B1

# Biological target: T1, Human FGF19
# Assay: Solid phase receptor binding assay: FGFR4-Fc captured on an anti-human Fc plate, FGF19 (0.25 µg/ml) incubated with titrated anti-FGF19 antibody, bound FGF19 detected with biotinylated polyclonal anti-FGF19 / streptavidin-HRP (OD 450 nm); blocked ligand-receptor pair FGF19/FGFR4
# Procedure: as §1, §2
row,IC50 [µg/mL],Binder
1,0.675,B1
